According to PMC3804942 (The Journal of Experimental Medicine, 2013):
Read-outs that look alike come from different tables or passages of the source.

Columns and labels:
RAGE mutant 0 = RAGE mutant 0 (UniProt Q15109 23-237, K110A;R178A;R179A); assay: fluorescence polarization
crystal structure = target: the molecule itself; assay: crystal structure
[1] = target: T1, RAGE V-C1 (crystallography) (human, UniProt Q15109 23-237); assay: X-ray crystallography
RAGE V domain (His) = RAGE V domain (His) (human, UniProt Q15109 23-121); assay: AlphaScreen
[2] = target: T2, RAGE extracellular domain V-C1-C2 (His) (human, UniProt Q15109 23-342); assay: AlphaScreen
[3] = target: T1, RAGE V-C1 (crystallography); assay: X-ray crystallography; remark: listed apart in the source
[4] = target: T2, RAGE extracellular domain V-C1-C2 (His); assay: AlphaScreen; remark: listed apart in the source

B1: ODN 787/788 20mer (dsDNA)
DNA 1: CCATCAAAGAGAGAAAGAGC
DNA 2: GCTCTTTCTCTCTTTGATGG
**Q.** Does B1 bind (RAGE mutant 0)?
**A.** binds

B2: Human RAGE V-C1 domain (residues 23-237) (domain or fragment)
chain: AQNITARIGEPLVLKCKGAPKKPPQRLEWKLNTGRTEAWKVLSPQGGGPWDSVARVLPNGSLFLPAVGIQDEGIFRCQAMNRNGKETKSNYRVRVYQIPGKPEIVDSASELTAGVPNKVGTCVSEGSYPAGTLSWHLDGKPLVPNEKGVSVKEQTRRHPETGLFTLQSELMVTPARGGDPRPTFSCSFSPGLPRHRALRTAPIQPRVWEPVPLEE
**Q.** Does B2 bind (crystal structure)?
**A.** binds

B3: ODN 752/753 vaccinia repeat 22mer (dsDNA)
DNA 1: CCATGACTGTAGGAAACTCTAG
DNA 2: GCTAGAGTTTCCTACAGTCATG
**Q.** Does B3 bind [1]?
**A.** binds

**Q.** Does TCGTCGTTTTGTCGTTTTGTCGTT (ssDNA, backbone of assayed form not in material; probably phosphorothioate) [ODN 2006 (CpG-B)] bind (RAGE V domain (His))?
**A.** binds

**Q.** Does TCGTCGTTTTGTCGTTTTGTCGTT (ssDNA, backbone of assayed form not in material; probably phosphorothioate) [ODN 2006 (CpG-B)] bind [2]?
**A.** binds

B4: ODN 981/982 CpG 22mer (dsDNA)
DNA 1: CTGCAACGATGCTACGAACGTG
DNA 2: CACGTTCGTAGCATCGTTGCAG
**Q.** Does B4 bind [3]?
**A.** binds

**Q.** Does GGGGACGACGTCGTGGGGGGG (ssDNA, phosphorothioate at positions marked * (G*G*GGACGACGTCGTGG*G*G*G*G*G)) [ODN 2336 (CpG-A)] bind [4]?
**A.** binds
